Laboratory results from US20230099149A1 (INNATE PHARMA, published 2023).

T1: modified Nectin-4 having the Ig-like C2 type 1 and the Ig-like C2 type 2 domains and lacking the Ig-like V … (human, UniProt Q96NY8 148-510)
T1 construct: also called C1C2 construct
T1 sequence: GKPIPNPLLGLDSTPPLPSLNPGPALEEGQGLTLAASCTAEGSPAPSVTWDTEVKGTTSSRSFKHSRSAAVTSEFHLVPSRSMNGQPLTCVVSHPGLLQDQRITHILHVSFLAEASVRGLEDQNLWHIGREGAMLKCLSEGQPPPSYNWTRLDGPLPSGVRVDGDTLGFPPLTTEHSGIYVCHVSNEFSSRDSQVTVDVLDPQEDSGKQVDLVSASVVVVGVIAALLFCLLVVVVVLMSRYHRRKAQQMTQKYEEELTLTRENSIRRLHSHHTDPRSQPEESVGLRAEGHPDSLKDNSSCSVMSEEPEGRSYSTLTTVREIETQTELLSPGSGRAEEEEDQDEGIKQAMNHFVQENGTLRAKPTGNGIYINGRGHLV

T2: human Nectin-4 at the surface of SUM185 and SUM190 human breast cancer tumor cells (human, UniProt Q96NY8 32-510)
T2 sequence: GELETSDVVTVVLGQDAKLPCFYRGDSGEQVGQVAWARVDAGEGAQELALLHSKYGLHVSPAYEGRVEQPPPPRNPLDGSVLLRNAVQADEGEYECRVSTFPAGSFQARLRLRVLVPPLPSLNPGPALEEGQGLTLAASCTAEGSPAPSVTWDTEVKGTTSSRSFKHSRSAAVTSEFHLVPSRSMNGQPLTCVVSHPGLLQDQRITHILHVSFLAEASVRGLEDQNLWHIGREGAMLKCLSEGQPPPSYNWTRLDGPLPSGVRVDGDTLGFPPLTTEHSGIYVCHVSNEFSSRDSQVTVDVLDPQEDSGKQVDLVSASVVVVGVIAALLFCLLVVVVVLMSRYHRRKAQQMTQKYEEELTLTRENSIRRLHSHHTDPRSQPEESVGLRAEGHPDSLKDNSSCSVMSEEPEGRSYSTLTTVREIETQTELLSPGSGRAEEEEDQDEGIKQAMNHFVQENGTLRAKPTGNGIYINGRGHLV

T3: wild-type human Nectin-4 protein expressed on CHO cells (huNectin4 CI.3C8 cell line) (human, UniProt Q96NY8 32-510)
T3 construct: also called whole Nectin-4 protein; wild type Nectin-4
T3 sequence: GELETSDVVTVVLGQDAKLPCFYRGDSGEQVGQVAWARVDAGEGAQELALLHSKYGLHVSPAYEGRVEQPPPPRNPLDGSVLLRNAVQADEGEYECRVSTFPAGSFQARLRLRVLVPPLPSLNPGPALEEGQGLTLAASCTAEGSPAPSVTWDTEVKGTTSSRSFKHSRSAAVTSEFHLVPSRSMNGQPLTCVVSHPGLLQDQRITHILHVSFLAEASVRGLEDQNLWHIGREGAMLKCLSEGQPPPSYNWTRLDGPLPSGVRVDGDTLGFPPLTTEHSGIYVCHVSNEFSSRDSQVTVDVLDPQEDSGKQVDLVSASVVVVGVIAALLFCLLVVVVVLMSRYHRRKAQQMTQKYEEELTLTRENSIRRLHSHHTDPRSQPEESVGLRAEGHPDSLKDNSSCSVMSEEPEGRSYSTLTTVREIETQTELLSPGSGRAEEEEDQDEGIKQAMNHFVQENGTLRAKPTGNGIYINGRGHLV


Key:
[1] = biological target: T1, modified Nectin-4 having the Ig-like C2 …; assay: flow cytometry on CHO cells expressing Nectin4-C1C2-V5
[2] = biological target: T2, human Nectin-4 at the surface of SUM185 …; assay: cell-based or functional assay
[3] = biological target: T3, wild-type human Nectin-4 protein …; assay: flow cytometry on CHO cells expressing wild-type human Nectin-4

| Binder | binding result [1] | IC50 of cell death, SUM185 cells, Cell Titer Glo viability at day 6 [2] | IC50 of cell death, SUM190 cells, Cell Titer Glo viability at day 6 [2] | binding result [3] |
| --- | --- | --- | --- | --- |
| enfortumab (VH and VL of SEQ ID NOS: 3 and 4 as human IgG1 isotype) (antibody, V domains shown, also called mAbA; ASG-22ME) VH: EVQLVESGGGLVQPGGSLRLSCAASGFTFSSYNMNWVRQAPGKGLEWVSYISSSSSTIYYADSVKGRFTISRDNAKNSLSLQMNSLRDEDTAVYYCARAYYYGMDVWGQGTTVTVSS VL: DIQMTQSPSSVSASVGDRVTITCRASQGISGWLAWYQQKPGKAPKFLIYAASTLQSGVPSRFSGSGSGTDFTLTISSLQPEDFATYYCQQANSFPPTFGGGTKVEIKR | no binding | – | – | – |
| N4 ADC1: anti-Nectin-4 antibody (VH and VL of SEQ ID NOS: 9 and 10, human IgG1) conjugated to a linker-camptothecin analogue (antibody, V domains shown, linker-camptothecin analogue conjugated stochastically via cysteine residues after partial reduction of interchain disulfide; average drug:antibody ratio of about 8) VH: QVQLKQSGPGLVQPSQSLSITCTVSGFSLTNYGVHWVRQSPGKGLEWLGVIWSGGSTDYNAAFISRLSISKDTSKSQVFFKMNSLQADDTAIYYCARELIHAMDNWGQGTSVTVSS VL: DIQMTQSPASLSVSVGETVTITCRASENIYSNLAWYQQKQGNSPQLLVFAATNLADGVPSRFSGSGSGTQYSLKINSLQSEDFGTYYCQHFWGTPTFGGGTKLEIK | – | 0.05 nM | 0.1 nM | – |
| N4 ADC2: anti-Nectin-4 antibody (VH and VL of SEQ ID NOS: 9 and 10, human IgG1) conjugated to a SN-38 containing linker (antibody, V domains shown, SN-38 containing linker conjugated via cysteine residues after partial reduction of interchain disulfide) VH: QVQLKQSGPGLVQPSQSLSITCTVSGFSLTNYGVHWVRQSPGKGLEWLGVIWSGGSTDYNAAFISRLSISKDTSKSQVFFKMNSLQADDTAIYYCARELIHAMDNWGQGTSVTVSS VL: DIQMTQSPASLSVSVGETVTITCRASENIYSNLAWYQQKQGNSPQLLVFAATNLADGVPSRFSGSGSGTQYSLKINSLQSEDFGTYYCQHFWGTPTFGGGTKLEIK | – | – | 0.4 nM | – |
| N41 (VH and VL of SEQ ID NOS: 9 and 10 as human IgG1 isotype) (antibody, V domains shown, also called mAbC) VH: QVQLKQSGPGLVQPSQSLSITCTVSGFSLTNYGVHWVRQSPGKGLEWLGVIWSGGSTDYNAAFISRLSISKDTSKSQVFFKMNSLQADDTAIYYCARELIHAMDNWGQGTSVTVSS VL: DIQMTQSPASLSVSVGETVTITCRASENIYSNLAWYQQKQGNSPQLLVFAATNLADGVPSRFSGSGSGTQYSLKINSLQSEDFGTYYCQHFWGTPTFGGGTKLEIK | no binding | – | – | binds |
